Patent US20160297884A1 (Pfizer, published 2016)

Key:
[1] = molecular target: BCMA (analyte of Table 4A); assay: SPR (Bio-Rad ProteOn XPR36), IgG amine-coupled, BCMA as analyte, kinetic titration; species of BCMA and temperature not stated for Table 4A
Description: (§1) All experiments were performed on a Bio-Rad Proteon XPR36 surface Plasmon resonance biosensor (Bio-Rad, Hercules, Calif.). […] The analysis temperature for the immobilization was 25° C. and the running buffer was HBS-T+(10 mM HEPES, 150 mM NaCl, 0.05% Tween-20, pH 7.4). Channels were activated in the analyte (horizontal) direction by injecting a mixture of 1 mM ECD and 0.25 mM NHS for 3 minutes at a flow rate of 30 μL/min. IgGs were immobilized on the activated spots by injecting them in the ligand (vertical) direction at 20 μg/mL in 10 mM Acetate pH 4.5 buffer for 1.5 minutes at […]. The activated surfaces were blocked by injecting 1M ethanolamine, pH 8.5 in the analyte direction for 3 minutes at 30 μL/min.
(§2) The analysis temperature for the BCMA binding analysis was 37° C. or 25° C. in a running buffer of HBS-T+, supplemented with 1 mg/mL BSA. A kinetic titration method was employed for the interaction analysis as described in Abdiche, et al. Human BCMA (huBCMA) or cynomolgus monkey BCMA (cyBCMA) analyte was injected in the analyte direction using a series of injections from low to high concentration. The concentrations used were 0.08 nM, 0.4 nM, 2 nM, 10 nM and 50 nM (a 5-membered series, with a 5-fold dilution factor and top concentration of 50 nM). The association time for a given analyte dilution was two minutes. Immediately after the 50 nM BCMA injection, dissociation was monitored for 2 hours.
(§3) The sensorgrams were double-referenced and fit to a 1:1 Langmuir with mass transport kinetic titration model in BIAevaluation Software version 4.1.1 (GE Lifesciences, Piscataway, N.J.).

Human BCMA [2] = molecular target: T1, Human BCMA (human, UniProt Q02223 1-54, limits assumed); assay: SPR, IgG immobilised, 25 C
T1 construct: Soluble analyte in SPR; construct not described; also called huBCMA; B-cell maturation antigen
T1 sequence (looked up): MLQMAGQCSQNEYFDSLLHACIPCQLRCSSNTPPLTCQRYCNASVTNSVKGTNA
Description: as §1, §2, §3

cynomolgus monkey BCMA [3] = molecular target: T2, cynomolgus monkey BCMA (cynomolgus monkey, UniProt A0A2K5UD97 1-53); assay: SPR, IgG immobilised, 25 C
T2 construct: Soluble analyte in SPR; construct not described; also called cyBCMA; Cyno BCMA
T2 sequence (A0A2K5UD97 entry or part of it): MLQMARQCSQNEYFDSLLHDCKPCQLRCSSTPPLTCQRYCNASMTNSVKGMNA
Description: as §1, §2, §3

Human BCMA [4] = molecular target: T1, Human BCMA; assay: SPR, IgG immobilised, 37 C
How it was run: (§4)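 Rate constants come from a 1:1 Langmuir model including mass transport, fitted to double-referenced sensorgrams. Analyte was human or cynomolgus BCMA in five rising concentrations up to 50 nM over amine-coupled IgG; runs were at 25° C or 37° C.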

cynomolgus monkey BCMA [5] = molecular target: T2, cynomolgus monkey BCMA; assay: SPR, IgG immobilised, 37 C
How it was run: as §4

Sequence of BCMA (analyte of Table 4A) (Q02223 whole entry, the tested form may be a part): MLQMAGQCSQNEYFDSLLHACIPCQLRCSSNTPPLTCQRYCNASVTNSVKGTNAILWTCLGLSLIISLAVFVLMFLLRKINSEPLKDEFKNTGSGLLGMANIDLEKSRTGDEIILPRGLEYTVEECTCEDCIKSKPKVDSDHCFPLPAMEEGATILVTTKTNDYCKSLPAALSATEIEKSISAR

B1: A02_Rd4_6nM_C01 (antibody, V domains shown)
VH: EVQLLESGGGLVQPGGSLRLSCAASGFTFSSYAMNWVRQAPGKGLEWVSAITASGGSTYYADSVKGRFTISRDNSKNTLYLQMNSLRAEDTAVYYCARYWPMSLWGQGTLVTVSS
VL: EIVLTQSPGTLSLSPGERATLSCRASQSVSAYYLAWYQQKPGQAPRLLMYDASIRATGIPDRFSGSGSGTDFTLTISRLEPEDFAVYYCQQYERWPLTFGQGTKVEIK
Kd [1]: 0.024 nM
koff [1]: 2.8e-05 s⁻¹
kon [1]: 1.2e+06 M⁻¹ s⁻¹
t1/2 [1]: 411 min

B2: A02_Rd4_6nM_C16 (antibody, V domains shown)
VH: EVQLLESGGGLVQPGGSLRLSCAASGFTFSSYAMNWVRQAPGKGLEWVSAISDFGGSTYYADSVKGRFTISRDNSKNTLYLQMNSLRAEDTAVYYCARYWPMDIWGQGTLVTVSS
VL: EIVLTQSPGTLSLSPGERATLSCRASQSVSDLYLAWYQQKPGQAPRLLMYDASIRATGIPDRFSGSGSGTDFTLTISRLEPEDFAVYYCQQYQTWPLTFGQGTKVEIK
notes: Tested as IgG; also called P5AC16
Kd [1]: 0.059 nM
koff [1]: 6.2e-05 s⁻¹
kon [1]: 1.1e+06 M⁻¹ s⁻¹
t1/2 [1]: 187 min

B3: COMBO_Rd4_0.6nM_C29 (antibody, V domains shown)
VH: EVQLLESGGGLVQPGGSLRLSCAASGFTFSSYPMSWVRQAPGKGLEWVSAIGGSGGSLPYADSVKGRFTISRDNSKNTLYLQMNSLRAEDTAVYYCARYWPMDIWGQGTLVTVSS
VL: EIVLTQSPGTLSLSPGERATLSCRASQSVSSSYLAWYQQKPGQAPRLLMYDASIRATGIPDRFSGSGSGTDFTLTISRLEPEDFAVYYCQQYQSWPLTFGQGTKVEIK
notes: Tested as IgG
Kd [1]: 0.021 nM
koff [1]: 0.00014 s⁻¹
kon [1]: 6.6e+06 M⁻¹ s⁻¹
t1/2 [1]: 83 min

B4: L3.PY/P6E01 (antibody, V domains shown)
VH: EVQLLESGGGLVQPGGSLRLSCAASGFTFGSYAMTWVRQAPGKGLEWVSAISGSGGNTFYADSVKGRFTISRDNSKNTLYLQMNSLRAEDTAVYYCARVSPIASGMDYWGQGTLVTVSS
VL: EIVLTQSPGTLSLSPGERATLSCRASQSVSSSYLAWYQQKPGQAPRLLIYGASSRATGIPDRFSGSGSGTDFTLTISRLEPEDFAVYYCQHYPYPPSFTFGQGTKVEIK
notes: IgG
Kd (Human BCMA [2]): 0.32 nM
T ½ (Human BCMA [2]): 50.7 min
koff (Human BCMA [2]): 0.000228 s⁻¹
kon (Human BCMA [2]): 712000 M⁻¹ s⁻¹
Kd (cynomolgus monkey BCMA [3]): 3.4 nM
T ½ (cynomolgus monkey BCMA [3]): 3.9 min
koff (cynomolgus monkey BCMA [3]): 0.00293 s⁻¹
kon (cynomolgus monkey BCMA [3]): 855000 M⁻¹ s⁻¹
Kd (Human BCMA [4]): 0.74 nM
T ½ (Human BCMA [4]): 5.91 min
koff (Human BCMA [4]): 0.00196 s⁻¹
kon (Human BCMA [4]): 2.65e+06 M⁻¹ s⁻¹
Kd (cynomolgus monkey BCMA [5]): 5.96 nM
T ½ (cynomolgus monkey BCMA [5]): 0.88 min
koff (cynomolgus monkey BCMA [5]): 0.0131 s⁻¹
kon (cynomolgus monkey BCMA [5]): 2.2e+06 M⁻¹ s⁻¹

B5: L3.PY/H3.TAQ (antibody, V domains shown)
VH: EVQLLESGGGLVQPGGSLRLSCAASGFTFGSYAMTWVRQAPGKGLEWVSAISGSGGNTFYADSVKGRFTISRDNSKNTLYLQMNSLRAEDTAVYYCTRVSPIAAQMDYWGQGTLVTVSS
VL: EIVLTQSPGTLSLSPGERATLSCRASQSVSSSYLAWYQQKPGQAPRLLIYGASSRATGIPDRFSGSGSGTDFTLTISRLEPEDFAVYYCQHYPYPPSFTFGQGTKVEIK
notes: Tested as IgG
Kd [1]: 0.053 nM
koff [1]: 0.00014 s⁻¹
kon [1]: 2.6e+06 M⁻¹ s⁻¹
t1/2 [1]: 84 min

B6: L1.LGF/L3.NY/H3.AQ (antibody, V domains shown)
VH: EVQLLESGGGLVQPGGSLRLSCAASGFTFGSYAMTWVRQAPGKGLEWVSAISGSGGNTFYADSVKGRFTISRDNSKNTLYLQMNSLRAEDTAVYYCARVSPIAAQMDYWGQGTLVTVSS
VL: EIVLTQSPGTLSLSPGERATLSCRASQSLGSFYLAWYQQKPGQAPRLLIYGASSRATGIPDRFSGSGSGTDFTLTISRLEPEDFAVYYCQHYNYPPSFTFGQGTKVEIK
notes: IgG
Kd (Human BCMA [2]): 0.45 nM
T ½ (Human BCMA [2]): 38.6 min
koff (Human BCMA [2]): 0.000299 s⁻¹
kon (Human BCMA [2]): 666000 M⁻¹ s⁻¹
Kd (cynomolgus monkey BCMA [3]): 2 nM
T ½ (cynomolgus monkey BCMA [3]): 7.8 min
koff (cynomolgus monkey BCMA [3]): 0.00148 s⁻¹
kon (cynomolgus monkey BCMA [3]): 751000 M⁻¹ s⁻¹
